Eight variants from IntAct's records for PubMed 22904282 can be followed below.

B1: DNA-directed RNA polymerase subunit beta (Mycobacterium tuberculosis (strain ATCC 25618 / P9WGY9 (parent)
chain: MLEGCILADSRQSKTAASPSPSRPQSSSNNSVPGAPNRVSFAKLREPLEVPGLLDVQTDSFEWLIGSPRWRESAAERGDVNPVGGLEEVLYELSPIEDFSGSMSLSFSDPRFDDVKAPVDECKDKDMTYAAPLFVTAEFINNNTGEIKSQTVFMGDFPMMTEKGTFIINGTERVVVSQLVRSPGVYFDETIDKSTDKTLHSVKVIPSRGAWLEFDVDKRDTVGVRIDRKRRQPVTVLLKALGWTSEQIVERFGFSEIMRSTLEKDNTVGTDEALLDIYRKLRPGEPPTKESAQTLLENLFFKEKRYDLARVGRYKVNKKLGLHVGEPITSSTLTEEDVVATIEYLVRLHEGQTTMTVPGGVEVPVETDDIDHFGNRRLRTVGELIQNQIRVGMSRMERVVRERMTTQDVEAITPQTLINIRPVVAAIKEFFGTSQLSQFMDQNNPLSGLTHKRRLSALGPGGLSRERAGLEVRDVHPSHYGRMCPIETPEGPNIGLIGSLSVYARVNPFGFIETPYRKVVDGVVSDEIVYLTADEEDRHVVAQANSPIDADGRFVEPRVLVRRKAGEVEYVPSSEVDYMDVSPRQMVSVATAMIPFLEHDDANRALMGANMQRQAVPLVRSEAPLVGTGMELRAAIDAGDVVVAEESGVIEEVSADYITVMHDNGTRRTYRMRKFARSNHGTCANQCPIVDAGDRVEAGQVIADGPCTDDGEMALGKNLLVAIMPWEGHNYEDAIILSNRLVEEDVLTSIHIEEHEIDARDTKLGAEEITRDIPNISDEVLADLDERGIVRIGAEVRDGDILVGKVTPKGETELTPEERLLRAIFGEKAREVRDTSLKVPHGESGKVIGIRVFSREDEDELPAGVNELVRVYVAQKRKISDGDKLAGRHGNKGVIGKILPVEDMPFLADGTPVDIILNTHGVPRRMNIGQILETHLGWCAHSGWKVDAAKGVPDWAARLPDELLEAQPNAIVSTPVFDGAQEAELQGLLSCTLPNRDGDVLVDADGKAMLFDGRSGEPFPYPVTVGYMYIMKLHHLVDDKIHARSTGPYSMITQQPLGGKAQFGGQRFGEMECWAMQAYGAAYTLQELLTIKSDDTVGRVKVYEAIVKGENIPEPGIPESFKVLLKELQSLCLNVEVLSSDGAAIELREGEDEDLERAAANLGINLSRNESASVEDLA
B2: RNA polymerase-binding transcription factor CarD (Mycobacterium tuberculosis (strain ATCC 25618 / P9WJG3 (parent)
chain: MIFKVGDTVVYPHHGAALVEAIETRTIKGEQKEYLVLKVAQGDLTVRVPAENAEYVGVRDVVGQEGLDKVFQVLRAPHTEEPTNWSRRYKANLEKLASGDVNKVAEVVRDLWRRDQERGLSAGEKRMLAKARQILVGELALAESTDDAKAETILDEVLAAAS
B3: DNA-directed RNA polymerase subunit beta (Mycobacterium tuberculosis (strain ATCC 25618 / P9WGY9 (parent)
chain: B1 chain
partner: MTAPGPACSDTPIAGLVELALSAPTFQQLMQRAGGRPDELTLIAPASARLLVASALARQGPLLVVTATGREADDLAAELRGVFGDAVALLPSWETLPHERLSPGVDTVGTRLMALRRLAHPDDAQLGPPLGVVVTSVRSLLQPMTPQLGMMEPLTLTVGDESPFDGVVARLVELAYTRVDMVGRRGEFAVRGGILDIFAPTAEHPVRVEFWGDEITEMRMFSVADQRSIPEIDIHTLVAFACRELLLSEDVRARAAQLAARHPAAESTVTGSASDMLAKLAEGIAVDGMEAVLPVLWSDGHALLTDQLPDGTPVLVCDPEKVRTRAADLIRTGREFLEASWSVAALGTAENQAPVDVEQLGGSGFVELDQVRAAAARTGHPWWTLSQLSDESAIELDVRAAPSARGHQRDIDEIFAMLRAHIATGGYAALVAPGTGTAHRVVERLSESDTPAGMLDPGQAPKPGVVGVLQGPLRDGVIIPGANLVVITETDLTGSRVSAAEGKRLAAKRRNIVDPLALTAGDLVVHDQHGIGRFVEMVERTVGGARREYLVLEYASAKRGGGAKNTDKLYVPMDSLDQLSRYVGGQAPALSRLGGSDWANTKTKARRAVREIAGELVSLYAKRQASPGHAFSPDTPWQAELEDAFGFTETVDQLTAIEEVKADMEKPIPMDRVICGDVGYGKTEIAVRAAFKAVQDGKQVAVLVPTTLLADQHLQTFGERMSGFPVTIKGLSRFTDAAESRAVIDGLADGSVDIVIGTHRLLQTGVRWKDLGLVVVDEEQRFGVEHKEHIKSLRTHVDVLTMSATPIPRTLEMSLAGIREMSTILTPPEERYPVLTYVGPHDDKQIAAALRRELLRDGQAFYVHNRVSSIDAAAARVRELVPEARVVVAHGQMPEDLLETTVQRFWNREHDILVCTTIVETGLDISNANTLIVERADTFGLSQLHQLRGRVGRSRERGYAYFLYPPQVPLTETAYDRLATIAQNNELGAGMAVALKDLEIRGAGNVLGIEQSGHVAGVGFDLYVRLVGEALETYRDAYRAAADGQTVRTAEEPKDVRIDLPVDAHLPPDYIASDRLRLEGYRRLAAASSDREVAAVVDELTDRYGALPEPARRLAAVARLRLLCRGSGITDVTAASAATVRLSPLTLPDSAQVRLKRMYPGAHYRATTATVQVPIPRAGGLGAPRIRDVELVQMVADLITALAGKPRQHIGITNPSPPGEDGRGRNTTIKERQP

The variants in the first test derive from B1. The settings on record: with card_myctu carD.
Regarding S149A, the “effect of a mutation on the interaction” value is “decreasing interaction”.

In the case of I147A, the “effect of a mutation on the interaction” value was “disrupting interaction”.

E138R: the “effect of a mutation on the interaction” value is “disrupting interaction”.

A further test covers variants of B2. The settings on record: with rpob_myctu rpoB.
Regarding R25E, the “effect of a mutation on the interaction” value is reported as “decreasing interaction strength”.

Regarding R47E, the “effect of a mutation on the interaction” value is “decreasing interaction strength”.

In the next test the parent is B3. The settings on record: with mfd_myctu mfd.
S149A: the “effect of a mutation on the interaction” value is on record as “decreasing interaction strength”.

Take I147A: the “effect of a mutation on the interaction” value was “disrupting interaction”.

As for E138R, the “effect of a mutation on the interaction” value is recorded as “disrupting interaction”.
